Data reported in patent US20190389956A1 (INSTITUTE OF BIOPHYSICS CHINESE ACADEMY OF SCIENCES, published 2019).

Assays:
[1] = biological target: T1, human IFNAR1 truncation lacking extracellular SD1, fused with GFP, expressed on HEK293T cells (human, UniProt P17181 28-457); assay: flow cytometry on transfected HEK293T cells, PE anti-mouse IgG
T1 construct: domain: extracellular and transmembrane domains lacking SD1 (32-126); Made from pEGFP-humanIFNAR1EC by overlap PCR; transiently expressed on HEK293T cells; also called R1-Δ1; RI-Δ1; not shown: C-terminal GFP (with linker) from the pEGFP vector
T1 sequence (looked up): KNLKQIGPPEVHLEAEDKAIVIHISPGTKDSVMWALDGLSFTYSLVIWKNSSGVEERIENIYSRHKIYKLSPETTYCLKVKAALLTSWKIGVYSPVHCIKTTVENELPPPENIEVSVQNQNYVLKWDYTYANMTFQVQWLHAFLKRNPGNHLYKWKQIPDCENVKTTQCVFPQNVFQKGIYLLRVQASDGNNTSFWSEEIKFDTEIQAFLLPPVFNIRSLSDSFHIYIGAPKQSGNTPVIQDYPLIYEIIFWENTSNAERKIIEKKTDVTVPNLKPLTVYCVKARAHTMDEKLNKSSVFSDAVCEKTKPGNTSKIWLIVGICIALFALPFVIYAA

[2] = biological target: T2, human IFNAR1 extracellular and transmembrane domains fused with GFP, expressed on HEK293T cells … (human, UniProt P17181 28-457); assay: flow cytometry screening on HEK293T cells expressing human IFNAR1 extracellular domain-GFP
T2 construct: domain: extracellular domains and transmembrane domains; the intracellular domain is replaced by GFP; also called R1-WT; HEK293T cells stably expressing IFNAR1; not shown: C-terminal GFP (with linker) from the pEGFP vector
T2 sequence (looked up): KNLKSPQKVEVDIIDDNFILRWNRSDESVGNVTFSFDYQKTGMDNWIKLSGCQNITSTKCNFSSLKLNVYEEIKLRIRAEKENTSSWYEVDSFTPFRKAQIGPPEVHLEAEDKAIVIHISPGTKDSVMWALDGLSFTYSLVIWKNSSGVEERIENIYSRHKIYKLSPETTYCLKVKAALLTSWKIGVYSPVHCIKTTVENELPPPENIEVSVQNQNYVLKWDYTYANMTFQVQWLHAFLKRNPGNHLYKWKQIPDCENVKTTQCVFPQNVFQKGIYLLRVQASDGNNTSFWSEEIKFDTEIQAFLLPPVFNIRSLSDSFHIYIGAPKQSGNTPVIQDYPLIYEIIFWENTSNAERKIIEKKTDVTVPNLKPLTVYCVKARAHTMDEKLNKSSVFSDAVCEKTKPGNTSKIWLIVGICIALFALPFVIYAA
Description: Hybridoma secreting IFNAR1 antibody can be screened by analyzing GFP and PE signals of cells by flow cytometry. Monoclonal IgG antibodies of each well were screened by a reporter cell line stably expressing the extracellular domain of IFNAR1. Once extensive hybridoma growth occurs, hybridoma cells are usually screened after 10-14 days. Hybridoma cells secreting IFNAR1 antibody are subcloned by limited dilution method and were screened again. If still positive for human IFNAR1, then the monoclonal antibody is subcloned at least twice by limited dilution. Then the stable subclones are cultured in vitro, and a small amount of antibodies are produced in tissue culture medium for characterization.
The day before screening, 100 μL supernatant was aspirated from 96-well cell culture plate into a 96-well U bottom plate. 100 μL fresh 1×HAT RPMI medium was added to the original well for continued culture. HEK293T cells stably expressing IFNAR1 were harvested and were subsequently added to a 96-well U-bottom plate at a density of 10,000 cells/200 μL/well. After centrifugation at 2200 rpm for 3 min, the supernatant was discarded and the cell pellet was collected and re-suspended with 100 μL hybridoma supernatant at 4° C. for 30 min. […] Finally, the re-suspended cells were analyzed using a flow cytometer Guava (Millipore) for cellular GFP and PE signal. […]

B1: mouse anti-human IFNAR1 monoclonal antibody 10C9 (antibody, V domains shown)
VH: QIQLVQSGPELKKPGETVKISCKASGYTFTNYGVNWMKQAPGKGLKWMGWINTYTGEPTYADDFKGRFAFSLETSASTAYLQINNLKNEDTATYFCAREGVYYYGDWAWLAYWGQGTLVTVSA
VL: DIVMTQSQKFISTSVGDRVSVTCKASQNVGTNVAWYQQKPGQSPKTLIYSTSYRYNGVPDRFTGSGSGTDFTLTISNVQSEDLAEYFCQQYNSYYTFGGGTKLEIK
notes: Mouse monoclonal IgG from a hybridoma, detected with anti-mouse IgG; also called antibody secreted by hybridoma cell line 10C9 (CGMCC No. 12543)
- binding result [1]: no binding (tested: 5 µg/ml (methods of Example 2))
- binding result [2]: binds

B2: mouse anti-human IFNAR1 monoclonal antibody 10C2 (antibody, V domains shown)
VH: QIQLVQSGPELKKPGETVKISCKASGYTFTNYGMNWVKQAPGKGLKWMGWINTYTGEPTYSDDFKGRFAFSLETSASTANLQINNLKDEDAATYFCAREGAIYYGDYVYFGVWGAGTTVTVSS
VL: DIVMTQSQKFMSTSVGDRVSITCKASQNVGTAVAWYQEKPGQSPKLLIYSASNRYTGVPDRFTGSGSGTAFTLTISNMQSEDLADYFCQQYYNYPLTFGAGTKLEVKR
notes: Mouse monoclonal IgG from a hybridoma, detected with anti-mouse IgG; also called antibody secreted by hybridoma cell line 10C2 (CGMCC No. 12542)
- binding result [1]: no binding (tested: 5 µg/ml (methods of Example 2))
- binding result [2]: binds
